From patent US20240024505A1

Target: mRXFP1 (UniProt Q9HBX9)
Test: cell-based or functional assay

mRXFP1, sequence (Q9HBX9 whole entry): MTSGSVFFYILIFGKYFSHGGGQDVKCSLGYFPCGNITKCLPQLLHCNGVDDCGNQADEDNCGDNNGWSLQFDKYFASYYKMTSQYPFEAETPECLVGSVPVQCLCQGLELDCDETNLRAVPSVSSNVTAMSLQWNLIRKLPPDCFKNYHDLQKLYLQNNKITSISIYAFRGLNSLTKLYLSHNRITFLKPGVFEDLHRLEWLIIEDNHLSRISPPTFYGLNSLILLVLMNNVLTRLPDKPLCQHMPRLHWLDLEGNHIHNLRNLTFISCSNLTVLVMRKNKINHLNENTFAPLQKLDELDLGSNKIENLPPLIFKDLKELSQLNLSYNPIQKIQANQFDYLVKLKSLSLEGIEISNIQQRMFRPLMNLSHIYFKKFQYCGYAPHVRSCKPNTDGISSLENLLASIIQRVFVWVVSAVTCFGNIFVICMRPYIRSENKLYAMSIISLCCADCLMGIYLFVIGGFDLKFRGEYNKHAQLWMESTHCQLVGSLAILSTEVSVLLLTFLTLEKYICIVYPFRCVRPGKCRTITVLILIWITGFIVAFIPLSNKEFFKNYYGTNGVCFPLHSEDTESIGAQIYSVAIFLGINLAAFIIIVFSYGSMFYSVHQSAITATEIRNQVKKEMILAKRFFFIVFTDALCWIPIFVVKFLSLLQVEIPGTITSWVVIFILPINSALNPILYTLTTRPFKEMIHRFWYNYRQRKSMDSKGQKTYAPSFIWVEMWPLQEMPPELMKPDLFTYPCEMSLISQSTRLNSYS

recombinant RLX (serelaxin) (from UniProt P04090 25-53; P04090 162-185) (ligand)
intracellular cAMP in human fibroblast-like synoviocytes: > 15 fold
